From patent publication US20020142429

Legend:
[1] = biological target: rabbit reticulocyte eEF-2, P55823
[2] = biological target: Dictyostelium myosin (myosin heavy chains), P08799
Chain of Dictyostelium myosin (myosin heavy chains), P08799 (P08799 whole entry): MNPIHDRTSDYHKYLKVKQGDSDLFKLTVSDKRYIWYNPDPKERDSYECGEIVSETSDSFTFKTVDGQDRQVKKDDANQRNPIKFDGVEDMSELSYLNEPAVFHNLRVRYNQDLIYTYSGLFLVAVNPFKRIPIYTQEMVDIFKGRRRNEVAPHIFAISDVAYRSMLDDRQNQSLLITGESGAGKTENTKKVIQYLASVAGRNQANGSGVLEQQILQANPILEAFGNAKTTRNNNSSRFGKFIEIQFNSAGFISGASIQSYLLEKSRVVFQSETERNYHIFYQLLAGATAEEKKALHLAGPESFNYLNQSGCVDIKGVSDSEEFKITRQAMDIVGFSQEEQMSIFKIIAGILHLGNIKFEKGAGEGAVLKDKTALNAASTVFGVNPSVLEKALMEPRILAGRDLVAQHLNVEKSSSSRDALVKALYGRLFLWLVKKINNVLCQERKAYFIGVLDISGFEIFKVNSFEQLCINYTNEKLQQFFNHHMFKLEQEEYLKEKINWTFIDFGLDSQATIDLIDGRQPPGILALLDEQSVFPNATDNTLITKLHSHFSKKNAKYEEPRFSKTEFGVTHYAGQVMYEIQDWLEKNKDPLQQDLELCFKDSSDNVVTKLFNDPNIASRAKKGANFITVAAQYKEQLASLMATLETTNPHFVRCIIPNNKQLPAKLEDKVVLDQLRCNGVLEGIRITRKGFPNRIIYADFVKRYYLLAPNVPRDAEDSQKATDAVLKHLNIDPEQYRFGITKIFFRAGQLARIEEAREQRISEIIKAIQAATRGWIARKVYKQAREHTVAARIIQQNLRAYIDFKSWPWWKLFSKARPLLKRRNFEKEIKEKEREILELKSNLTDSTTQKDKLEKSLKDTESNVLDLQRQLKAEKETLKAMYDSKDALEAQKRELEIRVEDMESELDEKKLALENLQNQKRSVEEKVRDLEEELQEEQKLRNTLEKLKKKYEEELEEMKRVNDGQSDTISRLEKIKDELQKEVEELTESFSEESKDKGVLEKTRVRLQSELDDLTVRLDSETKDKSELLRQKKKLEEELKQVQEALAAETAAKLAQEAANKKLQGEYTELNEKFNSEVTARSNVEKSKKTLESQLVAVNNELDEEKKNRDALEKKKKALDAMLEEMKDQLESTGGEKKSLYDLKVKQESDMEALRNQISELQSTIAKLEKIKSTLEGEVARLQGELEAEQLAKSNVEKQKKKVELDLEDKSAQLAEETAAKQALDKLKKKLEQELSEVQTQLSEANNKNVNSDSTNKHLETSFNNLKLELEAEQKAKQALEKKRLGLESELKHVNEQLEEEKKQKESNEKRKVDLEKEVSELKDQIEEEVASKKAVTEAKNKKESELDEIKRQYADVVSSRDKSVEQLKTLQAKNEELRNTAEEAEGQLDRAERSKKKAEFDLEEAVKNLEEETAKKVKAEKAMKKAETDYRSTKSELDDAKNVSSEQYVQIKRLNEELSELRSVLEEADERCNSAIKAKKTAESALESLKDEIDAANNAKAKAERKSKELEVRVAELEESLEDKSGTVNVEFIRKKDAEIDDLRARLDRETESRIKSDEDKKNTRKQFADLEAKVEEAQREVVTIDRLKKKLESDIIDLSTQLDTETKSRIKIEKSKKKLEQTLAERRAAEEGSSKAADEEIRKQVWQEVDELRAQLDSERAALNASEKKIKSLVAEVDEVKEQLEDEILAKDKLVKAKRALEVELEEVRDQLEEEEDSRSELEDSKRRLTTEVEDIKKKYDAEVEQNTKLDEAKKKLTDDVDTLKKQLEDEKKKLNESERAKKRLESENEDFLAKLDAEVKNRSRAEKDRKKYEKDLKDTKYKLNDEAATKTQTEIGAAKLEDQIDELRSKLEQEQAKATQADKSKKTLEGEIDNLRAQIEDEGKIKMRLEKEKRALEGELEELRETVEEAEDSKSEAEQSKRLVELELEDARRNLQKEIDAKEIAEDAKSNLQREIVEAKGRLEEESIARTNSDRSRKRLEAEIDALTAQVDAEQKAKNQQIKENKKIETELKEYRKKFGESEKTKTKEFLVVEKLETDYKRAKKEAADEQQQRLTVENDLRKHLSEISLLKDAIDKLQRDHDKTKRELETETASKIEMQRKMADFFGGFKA

B1: rabbit reticulocyte eEF-2 kinase (protein)
chain: ADEDLIFRLEGLGGHQSSQTGHDGDSDADSDEEEGYFICPITDDPQSNQNVNSKINNYYSNLTKSERYGSSGSPASSFHFKEAWKHAIEKAKHMPDPWAEFHLEDIATECATRHRYNAVTGEWLQDEVLIKMASQPFGRGAMRECFRTKKLSNFLHAQQWKGASNYVAKRYIESVDRDVYFEDVRLQMEAKLWGEEYNRHKPPKQVDIMQMCIIELTERPGKPLFHLEHYIEGKYIKYNSNSGFVRDDNIRLTPQAFSHFTFERSGHQLIVVDIQGVGDLYTDPQIHTETGTDFGDGNLGVRGMALFFYSHACNRICKSMGLAPFDLSPREQDAVNQNTKLLQSAKTILRGTEEKCGSPRVRTLSGSRPPLLLRLSENSGDENMSDVTFDSLPSSPSSATPHSQKLDHLHWPVFSDLDNMAAREQDHLDNQRDSENSGDSGYPSEKRSELDDPEPREHGHSNGNRRCESDEDSLGSSGRVCVEKWNLLNPSRLHLPRASAVALEVQRLNALDLERKIGKSVLGKVHLAMVRYHEGGRFCDRDEEWDRESAVFHLEHAADLGELEAIVGLGLMYSQLPHHILADVSLKDTKENKTKGFDYLLKAAEAGDRQSMILVARAFDTGQNLSPERSRDWQEALHWYNSALEMTDCDEGGEYDGVQDEPRYTLLAREAEMLFTGGCGLDKDPQRSGDLYTQAAEAAMEAMKGRLANQYYQKAEEAWAQMEE
Question: How did the “phosphorylation assay (substrate specificity), 10 min” value [1] turn out when B1 was run?
Answer: each of these kinases is specific for their respective substrates

Question: And the “phosphorylation assay (substrate specificity), 10 min” value [2]?
Answer: rabbit eEF-2 kinase cannot use myosin heavy chains as a substrate
